Test results as given in patent US20200262877A1, “ION CHANNEL-BINDING PEPTIDES AND METHODS OF USE THEREOF” (priority 2017, published 2020).

Legend:
TRPV1 = molecular target: T1, TRPV1 (Homo sapiens, UniProt Q8NER1); assay: Ion channel panel (IonWorks Barracuda): TRPV1; format: cell-based; settings: 100% = no change, <100% = inhibition
T1 construct: host or cells: HEK293 or CHO
In short: (§1)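 Transfected HEK293 or CHO cells were exposed for at least 5 min to peptides at 200 nM and 20 μM final, tested in duplicate, in HEPES-buffered physiological saline. Activation was taken as peptide-plus-agonist current over control current ×100, and inhibition as 1 minus that ratio ×100. Each channel's control was its own reference compound.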

Cav2.1 = molecular target: T2, Cav2.1 (Homo sapiens, UniProt O00555); assay: cell-based; settings: 100% = no change, <100% = inhibition
T2 construct: host or cells: HEK293 or CHO
In short: as §1

Cav2.2 = molecular target: T3, Cav2.2 (Homo sapiens, UniProt Q00975); assay: cell-based; settings: 100% = no change, <100% = inhibition
T3 construct: host or cells: HEK293 or CHO
In short: as §1

Kv2.1 = molecular target: T4, Kv2.1 (Homo sapiens, UniProt Q14721); assay: cell-based; settings: 100% = no change, <100% = inhibition
T4 construct: host or cells: HEK293 or CHO
In short: as §1

Kir2.1 = molecular target: T5, Kir2.1 (Homo sapiens, UniProt P63252); assay: Ion channel panel (IonWorks Barracuda): Kir2.1; format: cell-based; settings: 100% = no change, <100% = inhibition
T5 construct: host or cells: HEK293 or CHO
In short: as §1

NR2A = molecular target: T6, NR2A (Homo sapiens, UniProt Q12879); assay: Ion channel panel (IonWorks Barracuda): NR2A; format: cell-based; settings: 100% = no change, <100% = inhibition
T6 construct: host or cells: HEK293 or CHO
In short: as §1

GABA = assay: Ion channel panel (IonWorks Barracuda): GABA; format: cell-based; settings: 100% = no change, <100% = inhibition
In short: as §1

5HT3a = molecular target: T7, 5HT3a (Homo sapiens, UniProt P46098); assay: Ion channel panel (IonWorks Barracuda): 5HT3a; format: cell-based
T7 construct: host or cells: HEK293 or CHO
T7 sequence (P46098 whole entry, looked up): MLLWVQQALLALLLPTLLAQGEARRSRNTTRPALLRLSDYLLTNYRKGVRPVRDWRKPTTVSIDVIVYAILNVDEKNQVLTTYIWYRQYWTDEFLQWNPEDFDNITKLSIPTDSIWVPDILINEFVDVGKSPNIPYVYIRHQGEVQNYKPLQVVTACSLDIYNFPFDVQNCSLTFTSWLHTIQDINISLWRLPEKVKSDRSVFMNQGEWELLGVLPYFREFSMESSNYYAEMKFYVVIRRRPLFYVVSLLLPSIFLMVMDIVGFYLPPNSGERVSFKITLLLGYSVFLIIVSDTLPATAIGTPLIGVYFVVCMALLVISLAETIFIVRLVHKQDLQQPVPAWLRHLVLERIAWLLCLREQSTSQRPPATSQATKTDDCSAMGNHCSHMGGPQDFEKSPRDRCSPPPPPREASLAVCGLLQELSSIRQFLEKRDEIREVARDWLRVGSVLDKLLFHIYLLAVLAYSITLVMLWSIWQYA
In short: as §1

Nav1.7 = molecular target: T8, Nav1.7 (Homo sapiens, UniProt Q15858); assay: cell-based; format: cell-based; settings: 100% = no change; for Activity of Nav1.7 with peptide, expressed as a percentage of the reference compound: peptide at 0.2 μM; for Activity of Nav1.7 with peptide (percentage of the reference compound): peptide at 20 μM
T8 construct: host or cells: HEK293 or CHO
T8 sequence (Q15858 whole entry): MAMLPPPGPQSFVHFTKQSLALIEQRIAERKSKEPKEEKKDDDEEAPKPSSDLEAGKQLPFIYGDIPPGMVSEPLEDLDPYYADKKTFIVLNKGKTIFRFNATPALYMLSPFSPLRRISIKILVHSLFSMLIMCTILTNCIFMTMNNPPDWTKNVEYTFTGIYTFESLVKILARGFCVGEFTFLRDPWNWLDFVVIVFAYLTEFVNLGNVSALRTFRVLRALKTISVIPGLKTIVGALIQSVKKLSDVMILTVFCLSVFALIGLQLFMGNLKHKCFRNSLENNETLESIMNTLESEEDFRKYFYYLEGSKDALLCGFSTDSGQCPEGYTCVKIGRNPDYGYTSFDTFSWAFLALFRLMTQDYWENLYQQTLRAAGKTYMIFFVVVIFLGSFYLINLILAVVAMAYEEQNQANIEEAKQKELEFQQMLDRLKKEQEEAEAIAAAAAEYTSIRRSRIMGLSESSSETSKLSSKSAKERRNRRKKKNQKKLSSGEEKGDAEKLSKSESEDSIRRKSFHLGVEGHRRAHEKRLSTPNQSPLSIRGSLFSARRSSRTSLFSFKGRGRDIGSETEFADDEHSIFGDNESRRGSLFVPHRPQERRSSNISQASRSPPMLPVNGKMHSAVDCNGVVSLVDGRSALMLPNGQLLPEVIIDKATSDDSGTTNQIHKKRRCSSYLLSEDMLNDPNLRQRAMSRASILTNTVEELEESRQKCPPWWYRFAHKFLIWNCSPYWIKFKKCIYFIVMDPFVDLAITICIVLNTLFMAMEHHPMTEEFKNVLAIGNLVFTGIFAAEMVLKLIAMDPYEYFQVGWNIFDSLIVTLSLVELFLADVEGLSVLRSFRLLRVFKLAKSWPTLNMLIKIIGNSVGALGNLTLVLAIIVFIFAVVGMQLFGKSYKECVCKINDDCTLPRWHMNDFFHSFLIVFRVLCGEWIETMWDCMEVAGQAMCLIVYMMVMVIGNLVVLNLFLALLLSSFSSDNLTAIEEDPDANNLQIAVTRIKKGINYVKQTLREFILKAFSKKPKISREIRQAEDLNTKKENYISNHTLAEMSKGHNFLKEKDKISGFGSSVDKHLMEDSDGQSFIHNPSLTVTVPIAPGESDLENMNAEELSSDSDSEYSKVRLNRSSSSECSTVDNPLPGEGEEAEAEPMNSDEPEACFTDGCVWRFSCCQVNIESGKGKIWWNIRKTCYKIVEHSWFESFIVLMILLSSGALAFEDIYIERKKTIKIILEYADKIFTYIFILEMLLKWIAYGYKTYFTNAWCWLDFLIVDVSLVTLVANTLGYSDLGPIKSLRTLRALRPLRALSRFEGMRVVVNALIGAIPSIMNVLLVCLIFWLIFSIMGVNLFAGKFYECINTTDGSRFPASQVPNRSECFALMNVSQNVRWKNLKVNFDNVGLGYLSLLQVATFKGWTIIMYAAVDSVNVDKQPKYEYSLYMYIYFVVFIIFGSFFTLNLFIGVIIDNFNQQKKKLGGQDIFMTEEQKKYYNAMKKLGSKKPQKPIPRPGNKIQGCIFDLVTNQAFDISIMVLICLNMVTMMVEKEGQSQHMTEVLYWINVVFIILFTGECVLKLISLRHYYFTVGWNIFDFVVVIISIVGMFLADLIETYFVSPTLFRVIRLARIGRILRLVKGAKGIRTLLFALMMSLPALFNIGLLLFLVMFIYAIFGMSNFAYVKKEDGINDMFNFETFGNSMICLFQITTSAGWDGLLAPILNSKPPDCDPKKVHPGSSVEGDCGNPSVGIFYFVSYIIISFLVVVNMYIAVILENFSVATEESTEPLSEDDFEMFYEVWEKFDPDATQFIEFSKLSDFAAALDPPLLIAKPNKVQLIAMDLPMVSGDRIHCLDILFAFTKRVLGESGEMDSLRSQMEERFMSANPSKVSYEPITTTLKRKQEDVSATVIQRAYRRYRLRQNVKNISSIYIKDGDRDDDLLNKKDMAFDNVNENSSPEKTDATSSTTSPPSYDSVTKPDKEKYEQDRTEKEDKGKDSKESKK

TRPA1 = molecular target: T9, TRPA1 (Homo sapiens, UniProt O75762); assay: Ion channel panel (IonWorks Barracuda): TRPA1; format: cell-based; settings: 100% = no change, <100% = inhibition
T9 construct: host or cells: HEK293 or CHO
In short: as §1

NR2B = molecular target: T10, NR2B (Homo sapiens, UniProt Q13224); assay: Ion channel panel (IonWorks Barracuda): NR2B; format: cell-based; settings: 100% = no change, <100% = inhibition
T10 construct: host or cells: HEK293 or CHO
In short: as §1

hERG = hERG (Homo sapiens, UniProt Q12809); assay: in vitro; settings: 100% = no change, <100% = inhibition
In short: as §1

Nav1.5 = Nav1.5 (Homo sapiens, UniProt Q14524); assay: in vitro; settings: 100% = no change; for Activity of Nav1.5 with peptide, expressed as a percentage of the reference compound: peptide at 0.2 μM; for Activity of Nav1.5 with peptide (percentage of the reference compound): peptide at 20 μM
Sequence of Nav1.5 (Q14524 whole entry): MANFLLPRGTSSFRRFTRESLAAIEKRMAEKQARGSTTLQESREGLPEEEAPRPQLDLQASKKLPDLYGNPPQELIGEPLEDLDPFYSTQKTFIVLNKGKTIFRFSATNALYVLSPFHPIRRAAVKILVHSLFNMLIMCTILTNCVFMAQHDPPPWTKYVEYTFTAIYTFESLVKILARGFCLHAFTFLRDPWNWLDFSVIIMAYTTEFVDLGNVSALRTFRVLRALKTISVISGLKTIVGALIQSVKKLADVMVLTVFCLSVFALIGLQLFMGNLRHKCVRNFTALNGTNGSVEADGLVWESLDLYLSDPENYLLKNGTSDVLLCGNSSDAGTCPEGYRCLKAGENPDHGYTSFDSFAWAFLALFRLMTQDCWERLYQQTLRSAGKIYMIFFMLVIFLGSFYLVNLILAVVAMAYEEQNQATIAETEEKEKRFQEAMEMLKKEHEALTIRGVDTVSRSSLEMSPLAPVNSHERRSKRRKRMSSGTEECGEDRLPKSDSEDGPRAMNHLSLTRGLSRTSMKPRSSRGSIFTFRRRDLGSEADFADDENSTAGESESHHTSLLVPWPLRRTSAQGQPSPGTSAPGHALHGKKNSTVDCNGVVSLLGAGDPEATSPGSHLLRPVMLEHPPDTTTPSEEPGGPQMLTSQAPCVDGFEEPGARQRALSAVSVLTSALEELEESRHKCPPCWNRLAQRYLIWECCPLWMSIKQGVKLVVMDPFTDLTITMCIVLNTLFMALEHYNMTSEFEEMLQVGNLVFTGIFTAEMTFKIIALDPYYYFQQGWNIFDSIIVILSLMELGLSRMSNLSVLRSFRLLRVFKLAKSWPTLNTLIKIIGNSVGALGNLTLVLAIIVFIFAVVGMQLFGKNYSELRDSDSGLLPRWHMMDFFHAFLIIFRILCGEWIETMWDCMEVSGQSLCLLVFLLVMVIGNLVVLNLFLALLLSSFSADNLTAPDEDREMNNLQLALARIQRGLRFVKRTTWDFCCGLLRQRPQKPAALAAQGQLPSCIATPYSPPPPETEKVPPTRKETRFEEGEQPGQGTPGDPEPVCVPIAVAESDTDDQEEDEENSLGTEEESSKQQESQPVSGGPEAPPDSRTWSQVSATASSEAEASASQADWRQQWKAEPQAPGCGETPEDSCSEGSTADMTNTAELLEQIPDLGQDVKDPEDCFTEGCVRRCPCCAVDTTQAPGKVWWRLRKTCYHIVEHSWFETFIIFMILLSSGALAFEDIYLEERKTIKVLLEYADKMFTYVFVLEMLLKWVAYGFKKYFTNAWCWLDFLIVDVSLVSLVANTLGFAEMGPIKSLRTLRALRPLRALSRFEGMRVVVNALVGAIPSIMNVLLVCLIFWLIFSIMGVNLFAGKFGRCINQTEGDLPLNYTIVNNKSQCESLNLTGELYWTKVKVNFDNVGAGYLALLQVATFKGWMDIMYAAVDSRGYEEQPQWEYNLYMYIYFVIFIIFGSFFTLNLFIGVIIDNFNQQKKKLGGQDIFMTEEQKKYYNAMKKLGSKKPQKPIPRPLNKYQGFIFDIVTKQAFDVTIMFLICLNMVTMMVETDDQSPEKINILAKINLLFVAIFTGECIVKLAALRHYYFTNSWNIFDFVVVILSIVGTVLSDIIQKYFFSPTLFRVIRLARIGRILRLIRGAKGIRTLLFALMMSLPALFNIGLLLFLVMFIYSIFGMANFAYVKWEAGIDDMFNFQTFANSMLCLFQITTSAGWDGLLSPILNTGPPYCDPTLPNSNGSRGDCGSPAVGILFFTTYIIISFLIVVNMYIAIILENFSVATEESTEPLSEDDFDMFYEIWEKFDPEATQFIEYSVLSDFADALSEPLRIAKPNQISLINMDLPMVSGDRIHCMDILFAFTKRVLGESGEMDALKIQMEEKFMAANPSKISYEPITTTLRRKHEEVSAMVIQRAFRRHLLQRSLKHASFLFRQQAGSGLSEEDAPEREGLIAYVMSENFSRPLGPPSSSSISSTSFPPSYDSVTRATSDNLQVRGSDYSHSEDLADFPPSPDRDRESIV
In short: as §1

Kv1.3 = molecular target: T11, Kv1.3 (Homo sapiens, UniProt P22001); assay: cell-based; format: cell-based; settings: 100% = no change, <100% = inhibition
T11 construct: host or cells: HEK293 or CHO
T11 sequence (P22001 whole entry): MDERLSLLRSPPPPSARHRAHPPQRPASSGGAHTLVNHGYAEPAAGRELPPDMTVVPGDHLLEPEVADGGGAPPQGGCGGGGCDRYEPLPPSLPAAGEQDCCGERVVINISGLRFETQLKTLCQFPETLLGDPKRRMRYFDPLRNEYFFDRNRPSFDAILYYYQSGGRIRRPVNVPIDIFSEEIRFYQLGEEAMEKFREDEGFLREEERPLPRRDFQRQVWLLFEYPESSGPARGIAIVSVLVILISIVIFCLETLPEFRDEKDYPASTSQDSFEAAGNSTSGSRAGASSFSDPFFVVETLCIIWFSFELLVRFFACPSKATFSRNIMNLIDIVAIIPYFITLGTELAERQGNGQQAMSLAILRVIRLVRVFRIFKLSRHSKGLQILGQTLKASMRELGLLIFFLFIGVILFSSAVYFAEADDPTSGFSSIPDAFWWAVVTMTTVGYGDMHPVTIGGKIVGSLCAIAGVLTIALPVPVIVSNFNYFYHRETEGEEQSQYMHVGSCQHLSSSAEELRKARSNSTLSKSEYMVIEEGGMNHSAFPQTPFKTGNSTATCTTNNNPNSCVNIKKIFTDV
In short: as §1

Kv1.2 = molecular target: T12, Kv1.2 (Homo sapiens, UniProt P16389); assay: cell-based; format: cell-based; settings: 100% = no change, <100% = inhibition
T12 construct: host or cells: HEK293 or CHO
In short: as §1

Kv1.1 = molecular target: T13, Kv1.1 (Homo sapiens, UniProt Q09470); assay: cell-based; format: cell-based; settings: 100% = no change, <100% = inhibition
T13 construct: host or cells: HEK293 or CHO
T13 sequence (Q09470 whole entry): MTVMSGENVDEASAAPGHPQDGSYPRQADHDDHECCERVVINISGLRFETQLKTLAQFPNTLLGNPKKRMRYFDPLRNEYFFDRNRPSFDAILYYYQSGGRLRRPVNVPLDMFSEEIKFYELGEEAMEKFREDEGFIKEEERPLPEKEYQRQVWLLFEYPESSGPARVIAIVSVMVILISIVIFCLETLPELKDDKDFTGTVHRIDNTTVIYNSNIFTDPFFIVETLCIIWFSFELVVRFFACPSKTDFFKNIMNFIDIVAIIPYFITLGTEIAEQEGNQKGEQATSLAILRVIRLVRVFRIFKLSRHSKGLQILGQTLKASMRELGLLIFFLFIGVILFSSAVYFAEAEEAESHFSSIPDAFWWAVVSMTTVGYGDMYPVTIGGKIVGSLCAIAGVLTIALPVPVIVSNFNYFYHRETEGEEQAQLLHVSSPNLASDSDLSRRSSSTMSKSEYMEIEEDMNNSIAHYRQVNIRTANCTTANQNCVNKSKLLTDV
In short: as §1

α3β4 = molecular target: T14, α3β4 (Homo sapiens, UniProt P30926+P32297); assay: Ion channel panel (IonWorks Barracuda): α3β4; format: cell-based; settings: 100% = no change, <100% = inhibition
T14 construct: host or cells: HEK293 or CHO
In short: as §1

α4β2 = molecular target: T15, α4β2 (Homo sapiens, UniProt P17787+P43681); assay: Ion channel panel (IonWorks Barracuda): α4β2; format: cell-based; settings: 100% = no change, <100% = inhibition
T15 construct: host or cells: HEK293 or CHO
In short: as §1

[1] = first of two Nav1.7 columns (probably TP1)
[2] = second of two Nav1.7 columns (probably TP2)
[3] = first of two Nav1.5 columns (probably TP1)
[4] = second of two Nav1.5 columns (probably TP2)

Substance: 23 (GSCIGEGVPCDENDPRCCFGLVCLKPTLHGIWYKSYYCYKK) [compound 23]
- Activity of TRPV1 with peptide, expressed as a percentage of the reference compound (TRPV1; peptide at 0.2 μM): 117%
- Activity of TRPV1 with peptide (percentage of the reference compound) (TRPV1; peptide at 20 μM): 87%
- Activity of Cav2.1 with peptide, expressed as a percentage of the reference compound (Cav2.1; peptide at 0.2 μM): 95%
- Activity of Cav2.1 with peptide (percentage of the reference compound) (Cav2.1; peptide at 20 μM): 102%
- Activity of Cav2.2 with peptide, expressed as a percentage of the reference compound (Cav2.2; peptide at 0.2 μM): 110%
- Activity of Cav2.2 with peptide (percentage of the reference compound) (Cav2.2; peptide at 20 μM): 95%
- Activity of Kv2.1 with peptide, expressed as a percentage of the reference compound (Kv2.1; peptide at 0.2 μM): 93%
- Activity of Kv2.1 with peptide (percentage of the reference compound) (Kv2.1; peptide at 20 μM): 103%
- Activity of Kir2.1 with peptide, expressed as a percentage of the reference compound (Kir2.1; peptide at 0.2 μM): 105%
- Activity of Kir2.1 with peptide (percentage of the reference compound) (Kir2.1; peptide at 20 μM): 82%
- Activity of NR2A with peptide, expressed as a percentage of the reference compound (NR2A; peptide at 0.2 μM): 88%
- Activity of NR2A with peptide (percentage of the reference compound) (NR2A; peptide at 20 μM): 89%
- Activity of GABA with peptide, expressed as a percentage of the reference compound (GABA; peptide at 0.2 μM): 100%
- Activity of GABA with peptide (percentage of the reference compound) (GABA; peptide at 20 μM): 103%
- Activity of 5HT3a with peptide (percentage of the reference compound) (5HT3a): 101%
- Activity of 5HT3a with peptide, expressed as a percentage of the reference compound (5HT3a): 74%
- Activity of Nav1.7 with peptide, expressed as a percentage of the reference compound (Nav1.7; [1]): 89%
- Activity of Nav1.7 with peptide, expressed as a percentage of the reference compound (Nav1.7; [2]): 93%
- Activity of Nav1.7 with peptide (percentage of the reference compound) (Nav1.7; [1]): 65%
- Activity of Nav1.7 with peptide (percentage of the reference compound) (Nav1.7; [2]): 63%
- Activity of TRPA1 with peptide, expressed as a percentage of the reference compound (TRPA1; peptide at 0.2 μM): 126%
- Activity of TRPA1 with peptide (percentage of the reference compound) (TRPA1; peptide at 20 μM): 83%
- Activity of NR2B with peptide, expressed as a percentage of the reference compound (NR2B; peptide at 0.2 μM): 95%
- Activity of NR2B with peptide (percentage of the reference compound) (NR2B; peptide at 20 μM): 82%
- Activity of hERG with peptide, expressed as a percentage of the reference compound (hERG; peptide at 0.2 μM): 92%
- Activity of hERG with peptide (percentage of the reference compound) (hERG; peptide at 20 μM): 78%
- Activity of Nav1.5 with peptide, expressed as a percentage of the reference compound (Nav1.5; [3]): 85%
- Activity of Nav1.5 with peptide, expressed as a percentage of the reference compound (Nav1.5; [4]): 87%
- Activity of Nav1.5 with peptide (percentage of the reference compound) (Nav1.5; [3]): 85%
- Activity of Nav1.5 with peptide (percentage of the reference compound) (Nav1.5; [4]): 83%
- Activity of Kv1.3 with peptide, expressed as a percentage of the reference compound (Kv1.3; peptide at 0.2 μM): 81%
- Activity of Kv1.3 with peptide (percentage of the reference compound) (Kv1.3; peptide at 20 μM): 77%
- Activity of Kv1.2 with peptide, expressed as a percentage of the reference compound (Kv1.2; peptide at 0.2 μM): 83%
- Activity of Kv1.2 with peptide (percentage of the reference compound) (Kv1.2; peptide at 20 μM): 106%
- Activity of Kv1.1 with peptide, expressed as a percentage of the reference compound (Kv1.1; peptide at 0.2 μM): 95%
- Activity of Kv1.1 with peptide (percentage of the reference compound) (Kv1.1; peptide at 20 μM): 102%
- Activity of a3b4 with peptide, expressed as a percentage of the reference compound (α3β4; peptide at 0.2 μM): 94%
- Activity of a3b4 with peptide (percentage of the reference compound) (α3β4; peptide at 20 μM): 93%
- Activity of a4b2 with peptide, expressed as a percentage of the reference compound (α4β2; peptide at 0.2 μM): 87%
- Activity of a4b2 with peptide (percentage of the reference compound) (α4β2; peptide at 20 μM): 79%
